Reference: the nanobody polyreactivity screen of Harvey et al. (2022)

Assay: yeast display, Sf9 membrane polyspecificity reagent, FACS + sequencing; frameworks hold sequencing errors
Summary of the method: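 A nanobody's polyreactivity label depends on the gate it was sorted from. Yeast display cells were stained with 10% biotinylated, detergent-solubilized Sf9 membrane reagent for 1 hour at 4 °C, enriched on streptavidin microbeads and sorted by FACS. The low and high (top ~1%) gates were set on anti-HA fluorescence for expression and streptavidin fluorescence for reagent binding.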

| Sequence | polyreactivity (PSR sort gate) |
| --- | --- |
| QVQLVESGGGLVQAGGSLRLSCAASGSTFAIYAMGWYRPAPGKERELVASISGGSTNYADSVKGRFTISRDNAKNTVDLQMNSLKPEDTADYYCAARGALHHWYRYDYWGQGTQVTVSS | low polyreactivity |
| QVQLVESGGGLVQAGGSLRLSCAASGSTFAIYAMGWYRQAPGKERELVASISGGSTNYADSVKGRFTISRDNAKNTVYLQMNSLKPEDTAVYYCAARGALHHWYRYDYWGQVTQVTVSS | low polyreactivity |
| QVQLVESGGGLVQAGGSLRLSCAASGSTFAPNAMGWYRQAPGKERELVAAIRTNTGSTYYADSVKGRFTISRDNAKNTVYLQMNSLKPEDTAVYYCAAVFSGFYYAYDYWGQGTQVTVSS | high polyreactivity |
| QVQLVESGGGLVQAGGSLRLSCAASGSTFAPNTMGWYRQAPGKERELVARITSSDGSTTYADSVKGRFTISRDNAKNTVYLQMNSLKPEDTAVYYCAADYGRRWGYDYWGQGTQVTVSS | low polyreactivity |
| QVQLVESGGGLVQAGGSLRLSCAASGSTFAPYAMGWYRQAPGKERELVAAIRSSGGSTYYADSVKGRFTISRDNAKNTVYLQMNSLKPEDTAVYYCSDDYYTSADYVDYYYWGQGTQVTVSS | low polyreactivity |
| QVQLVESGGGLVQAGGSLRLSCAASGSTFAPYAMGWYRQAPGKERELVATISFRGGSTYYADSVKGRFTISRDNEMNTVFLEMNNLKPEDTAVYYCNAQRRYPYGYGYWGQGTQVTVSS | high polyreactivity |
| QVQLVESGGGLVQAGGSLRLSCAASGSTFAQNAMGWYRQEPGKERELVAAISRRGGSTYYADSVKGRFTISRDNAKNTVYLQMISLKPEDTAVYYCAADQPVRQLHRDDYWGQGTQVTVSS | low polyreactivity |
| QVQLVESGGGLVQAGGSLRLSCAASGSTFARNAMGWYRQAPGKERELVAAITTRGSSTYYADSVKGRFTISRDNAKNTVYLQMNSLKPEDTAVYYCAARTQAPLGKYGYWGQGTQVTVSS | high polyreactivity |
| QVQLVESGGGLVQAGGSLRLSCAASGSTFARNTMGWSRQAPGKEREIVAAIDWSGGNTYYADSVKGRFTISRDNAKNTVYLQMNSLKPEDTAVYNCYDYWGQGTQVTVSS | low polyreactivity |
| QVQLVESGGGLVQAGGSLRLSCAASGSTFARYAMGWYRQAPGKDREFVAVSTSGGSTYYADSVNGRFTISRDNAKNPVYLQMNSLKPEDTAVYYCAAQSYFVFGSYRRYYGYDYWGQGTQVTVSW | high polyreactivity |
| QVQLVESGGGLVQAGGSLRLSCAASGSTFARYAMGWYRQAPGKERELVAAISANGGITYYADSVKGRFTISRDNAKNTVYLQMNSLKPEDTAVYYCAARKSAYRFYRMNYWGQGTQVTVSS | high polyreactivity |
| QVQLVESGGGLVQAGGSLRLSCAASGSTFARYAMGWYRQAPGKERELVAAISRRGGSTYYADSVKGRFTISRDNAKNTVYLQINSLKPEDTAVYYCAARYGIITSFEYDYWGQGTQVTVSS | high polyreactivity |
| QVQLVESGGGLVQAGGSLRLSCAASGSTFARYAMGWYRQAPGKERELVAAITWGGGGTYADSVKGRFTISRDNAKNTVSLQMNSLKPEDTAVYYCNAYGPLILFIGFRLDYWGQGTQVTVSS | low polyreactivity |
| QVQLVESGGGLVQAGGSLRLSCAASGSTFARYAMVWYRQAPGKERELVAVIRSGGSTNYADSVKGRFTISRDNAKNTVYLQMNSLKPEDTAGAADQWTIHRWATYGYWGQGTQVTVSS | low polyreactivity |
| QVQLVESGGGLVQAGGSLRLSCAASGSTFARYVMGWYRQAPGKDRELVAAIRSTGGRTYYADSVKGRFTISRDNAKNTVYLQMNSLKPEDTAVYYCAAAFGQYSRKRFDYWGQGTQVTVSS | high polyreactivity |
| QVQLVESGGGLVQAGGSLRLSCAASGSTFASNAMGWYRQAPGKERELVAAISRSGGTTYYADSVKGRFTISRDNAKNTVYLQMNSLKPEDTAVYYCAVYGYRFYKAVKYYYWGQGTQVTVSS | high polyreactivity |

| Sequence | polyreactivity (PSR sort gate) |
| --- | --- |
| QVQLVESGGGLVQAGGSLRLSCAASGSTFASNAMGWYRQAPGKERELVATINGDGSTNYADSVKGRFTISRDNAKNTVYLQMNSLKPEDTAVYYCNARYDYYGFWYQPYTLEVDYWGQGTQVTVSS | low polyreactivity |
| QVQLVESGGGLVQAGGSLRLSCAASGSTFASNVMGWYRQAPGKERELVAAISRSGGNTYYADSVKGRFTISRDIAKNTVYLQMNSLKPEDTAVYYCAKYPFTRISYDYWGQGTLVTVSS | high polyreactivity |
| QVQLVESGGGLVQAGGSLRLSCAASGSTFASNVMGWYRQAPGKERELVAAITRGDRTHYAHSVKGRFTISRDNAKNTVYLQMNSLKPEDPAVYYCAKVTTLGRSRDYWGQGTQVTVSS | low polyreactivity |
| QVQLVESGGGLVQAGGSLRLSCAASGSTFASYAMGWYRQAPGKETELVASITRRGCSTDYADSVKGRFTISRDNAKNTVDFPMNLLKPEDTAVYYCATYSYPERTGGHRTHYYWGQGTQVTVSS | high polyreactivity |
| QVQLVESGGGLVQAGGSLRLSCAASGSTFASYAMGWYRQAPGKQRELVAAITDSGGSTYYADSVKGRFTISRDNAKNTVYLQMNSLKPEDTAVSYCAAYGRYFSYHDYDYWGQGTQVTVSS | low polyreactivity |
| QVQLVESGGGLVQAGGSLRLSCAASGSTFASYVMGGYSQAPGKERELVAGIDVRGVSTYYADSVKGRFTISRDNAKNTVYLQMNSLKPEDTAVYYCAIDNRYEMDYWGQGTQVTVSS | low polyreactivity |
| QVQLVESGGGLVQAGGSLRLSCAASGSTFAVYAMGWYRQAPGKERELVAVISRGANTNYADSVKGRFTISRDNAKNTVYLQMNSLKPEDTAVYYCAAVDGYDSHDTGEYYYWGQGTQVSVSS | low polyreactivity |
| QVQLVESGGGLVQAGGSLRLSCAASGSTFAVYTMGWYRQAPGKERELSTSYADSVKGRFTISRDNAKNTVYLQMNSLKPEDTAVYYCAADYDAWYDDIEYDYWGQGTQVTVSS | low polyreactivity |
| QVQLVESGGGLVQAGGSLRLSCAASGSTFAWYDMGWYRQAPGNEREFVAAIDYGGGSTYADSVKGRFTISRDKEKNTVYLQMNSLKPEDTAVYYCNADNWVYLYDYWGQGTQVTVSS | low polyreactivity |
| QVQLVESGGGLVQAGGSLRLSCAASGSTFAYAMGCYRQAPGKERELVAAIRTTGGSTYYADSVKGRFTISRDNAKNTVYFQMNSLNPEDSAVYYCAAVWGYGQYGSKYYYKYGYWGQGTQVTVSS | high polyreactivity |
| QVQLVESGGGLVQAGGSLRLSCAASGSTFAYNAMGWYRQAPGKERELVAAIRISGGTTYYADSVKGRFTISRDNAKNTVYLQMNSLKREDTAVYYCAAGTAGTTGSPKFSGYGYDYWGQGTQVTVSS | low polyreactivity |
| QVQLVESGGGLVQAGGSLRLSCAASGSTFAYNAMGWYRQAPGKERELVAAISWRGGSTYYADSVKGRFTISRDNAKNTVYLQMNSLKPEDTAVYYCAALYPYKREDYWGQGTQVTVSS | high polyreactivity |
| QVQLVESGGGLVQAGGSLRLSCAASGSTFAYNAMGWYRQAPGKERELVAVITWSDDRTYYADSVKGRFTISRDNAKNTVYLQMNSLKPEDTSVYYCAADRSGYWHYYTPYDYWGQGTQVTVSS | low polyreactivity |
| QVQLVESGGGLVQAGGSLRLSCAASGSTFAYNDMGWYRQAPGKERELVADIRSGGNTNYADSVKGRFTISRDNAKNTVYLQMNSLKPEDTAFYYCNVKYFVVAGYRYVKFDYWGQGTQVTVSS | low polyreactivity |
| QVQLVESGGGLVQAGGSLRLSCAASGSTFAYNVMGWYRQAPGKERELVAAITISGTSTYYADSVKGRFTISRDNAKNTVYLQMNSLKPEDTAVYYCAARRDRGRVKFYYWGQGTQVTVSS | high polyreactivity |
| QVQLVESGGGLVQAGGSLRLSCAASGSTFAYYAMGWYRQAPGKERELVAAISWRGGSTYYADSVKGRFTISRDNAKNTVYLLMNILKPEVTAVYYCAAARDRWGNYWGQGTQVTVSS | high polyreactivity |
